Where two headings read alike, the source gives them in different places. Blank lines part the entries; values can stand above or below the molecule they belong to.
How the values were obtained:
[1] = target: T1, zfNAGS-C (Danio rerio, UniProt E7FCP8); experiment: thermofluor with SYPRO Orange; type: binding; conditions: L-arginine up to 10 mM; no substrates; pH 7.5 phosphate
T1 construct: gene nags; conserved segment (AAK and NAT domains), targeting signal and variable segment removed; N-terminus at Gly73 of preprotein; N-terminal polyhistidine tag kept (pET15b); E. coli C41(DE3); predicted 52,752 Da
T1 sequence (E7FCP8 73-527): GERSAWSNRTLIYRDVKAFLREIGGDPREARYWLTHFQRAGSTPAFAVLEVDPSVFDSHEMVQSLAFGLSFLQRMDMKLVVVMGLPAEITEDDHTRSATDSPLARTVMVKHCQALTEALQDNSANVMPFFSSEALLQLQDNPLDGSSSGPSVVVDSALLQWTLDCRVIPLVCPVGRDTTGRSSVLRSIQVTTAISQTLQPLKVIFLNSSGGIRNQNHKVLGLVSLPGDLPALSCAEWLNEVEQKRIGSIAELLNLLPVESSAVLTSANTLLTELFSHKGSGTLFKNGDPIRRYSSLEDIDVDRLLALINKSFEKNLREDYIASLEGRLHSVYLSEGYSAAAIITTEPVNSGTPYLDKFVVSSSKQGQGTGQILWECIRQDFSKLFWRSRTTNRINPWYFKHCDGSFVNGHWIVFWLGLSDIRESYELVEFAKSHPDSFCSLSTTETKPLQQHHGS

[2] = target: T2, zfNAGS-M (Danio rerio, UniProt E7FCP8); experiment: enzymatic activity assay, Michaelis-Menten fit; type: biochemical; conditions: no L-arginine
T2 construct: gene nags; mature form, predicted mitochondrial targeting signal removed; N-terminus at Met47 of preprotein; N-terminal polyhistidine tag kept (pET15b); E. coli C41(DE3); predicted 55,498 Da; tetramer
T2 sequence (E7FCP8 46-527): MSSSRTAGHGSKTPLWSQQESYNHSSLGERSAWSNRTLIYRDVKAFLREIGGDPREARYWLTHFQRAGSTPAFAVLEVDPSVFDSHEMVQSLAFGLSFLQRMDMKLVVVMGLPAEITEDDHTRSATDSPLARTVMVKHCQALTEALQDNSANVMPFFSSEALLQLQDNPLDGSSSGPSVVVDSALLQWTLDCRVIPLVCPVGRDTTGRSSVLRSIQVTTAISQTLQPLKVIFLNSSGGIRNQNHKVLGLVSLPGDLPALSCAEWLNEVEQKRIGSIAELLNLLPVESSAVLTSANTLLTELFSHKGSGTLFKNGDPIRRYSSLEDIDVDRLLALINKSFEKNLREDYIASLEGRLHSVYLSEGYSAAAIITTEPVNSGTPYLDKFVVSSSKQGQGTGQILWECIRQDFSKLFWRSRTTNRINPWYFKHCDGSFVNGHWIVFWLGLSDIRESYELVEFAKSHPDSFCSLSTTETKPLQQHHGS
Text: enzymatic activity assay, Michaelis-Menten fit on zfNAGS-M

[3] = target: mature zebrafish N-acetylglutamate synthase (zfNAGS-M) (zebrafish (Danio rerio)) (UniProt E7FCP8); experiment: SEC; analytical gel chromatography, Superdex 200 HR 10/30, room temperature, 50 mM potassium phosphate pH 7.5, 300 mM KCl, 20% glycerol, 10 mM beta-mercaptoethanol, 0.006% Triton X-100, no L-arginine; 100 ul loaded at 0.5-1.3 mg/ml (zfNAGS-M) or 0.5-2.0 mg/ml (zfNAGS-C)
[4] = substrate: CC(=O)SCCNC(=O)CCNC(=O)[C@H](O)C(C)(C)COP(=O)(O)OP(=O)(O)OC[C@H]1O[C@@H](n2cnc3c(N)ncnc32)[C@H](O)[C@@H]1OP(=O)(O)O; experiment: enzymatic activity assay, Michaelis-Menten fit; type: biochemical, Danio rerio; conditions: 15 mM L-glutamate; no L-arginine
Text: (§1) enzymatic activity assay, Michaelis-Menten fit on zfNAGS-C

[5] = substrate: N[C@@H](CCC(=O)O)C(=O)O; experiment: enzymatic activity assay, Michaelis-Menten fit; type: biochemical, Danio rerio; conditions: 4 mM AcCoA; no L-arginine
Text: as §1

Molecule: N=C(N)NCCC[C@H](N)C(=O)O [L-arginine]
- thermofluor with SYPRO Orange [1]: Addition of L-arginine to both zfNAGS-M and zfNAGS-C resulted in changes

B1: zfNAGS-C (Danio rerio) (protein)
chain: GERSAWSNRTLIYRDVKAFLREIGGDPREARYWLTHFQRAGSTPAFAVLEVDPSVFDSHEMVQSLAFGLSFLQRMDMKLVVVMGLPAEITEDDHTRSATDSPLARTVMVKHCQALTEALQDNSANVMPFFSSEALLQLQDNPLDGSSSGPSVVVDSALLQWTLDCRVIPLVCPVGRDTTGRSSVLRSIQVTTAISQTLQPLKVIFLNSSGGIRNQNHKVLGLVSLPGDLPALSCAEWLNEVEQKRIGSIAELLNLLPVESSAVLTSANTLLTELFSHKGSGTLFKNGDPIRRYSSLEDIDVDRLLALINKSFEKNLREDYIASLEGRLHSVYLSEGYSAAAIITTEPVNSGTPYLDKFVVSSSKQGQGTGQILWECIRQDFSKLFWRSRTTNRINPWYFKHCDGSFVNGHWIVFWLGLSDIRESYELVEFAKSHPDSFCSLSTTETKPLQQHHGS
notes: conserved segment (AAK and NAT domains), targeting signal and variable segment removed; N-terminus at Gly73 of preprotein; N-terminal polyhistidine tag kept (pET15b); E. coli C41(DE3); predicted 52,752 Da
- Km [4]: 230 ± 60 µM
- Vmax [4]: 32.2 µmol/min/mg
- Km [5]: 1120 ± 210 µM
- Vmax [5]: 39.5 µmol/min/mg

Second part, the molecule after the results:

- Km ([2]; 4 mM AcCoA, read-out: Glutamate / Km ^app): 1130 ± 130 µM
Molecule: N[C@@H](CCC(=O)O)C(=O)O [L-glutamate]

- stoichiometry N [3]: 4
Molecule: mature zebrafish N-acetylglutamate synthase (zfNAGS-M) (from UniProt E7FCP8 47-527) (enzyme)

- Km ([2]; 15 mM L-glutamate, read-out: AcCoA / Km ^app): 220 ± 30 µM
Molecule: CC(=O)SCCNC(=O)CCNC(=O)[C@H](O)C(C)(C)COP(=O)(O)OP(=O)(O)OC[C@H]1O[C@@H](n2cnc3c(N)ncnc32)[C@H](O)[C@@H]1OP(=O)(O)O [AcCoA]

— paper PMC3899043, “Expression Pattern and Biochemical Properties of Zebrafish N-Acetylglutamate Synthase” (PLoS ONE, 2014)
